Source: the supplement of paper PMC12764529
± gives the half width of the 95% confidence interval.

Columns and labels:
[1] = folding stability dG unfold from trypsin proteolysis; higher = more stable
How it was run: (§1)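 Only designs with AlphaFold2 dimer inter-PAE above 15 were retained; each was a mini-protein under 80 residues with no cysteine, in a PA-tagged cDNA display construct. After digestion with trypsin and chymotrypsin and sequencing, K50 was inferred by Bayesian fitting of counts, and unfolding free energy was derived per protease or combined against a sequence-predicted unfolded-state K50 and a shared folded-state K50.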

[2] = folding stability dG unfold from chymotrypsin proteolysis; higher = more stable
How it was run: as §1

[3] = folding stability dG unfold (combined trypsin and chymotrypsin); higher = more stable
How it was run: as §1

Sequence | folding stability dG unfold [1] [kcal/mol] | folding stability dG unfold [2] [kcal/mol] | folding stability dG unfold [3] [kcal/mol]
SAGGSAGGSEEKTVLARIKITFPDGEKREIEVEMTLDELKKLLEELGLSEEEVKIEVELVPLPSAGGSAGGS [r20_154_TrROS_Hall] | 3.99 ± 0.11 | 3.56 ± 0.071 | 3.8 ± 0.087
SAGGSPTREVVLPTKDPTADKAFYTVRITLTEPPSNSTAVTVTFLDLPPDVEPSPELVAAVEAALSSAGGSA [r2_7_JUSTAS] | 0.46 ± 0.036 | 0.436 ± 0.13 | 0.495 ± 0.056
SAGGSAGGSAGGKYKILKIEKYKLPNGGYYYKALVYEEENGEWKEIYAKANSAKNFKFESAGGSAGGSAGGS [r10_326_TrMRF] | 0.828 ± 0.049 | 1.16 ± 0.11 | 1.08 ± 0.1
SGMDSNPKTTTENISFEEALKRLPSSVTSVEPRGESVVIKQSSPDSLTVVTMTRDPSSDSAPATTTTYLSSA [r9_604_JUSTAS] | 0.304 ± 0.087 | 0.181 ± 0.36 | 0.341 ± 0.17
SAGGEEEILRQIREAAKKGEEVTIVFPKGMSIEELKKLIEEELGVEVEEIKVEKNENGELTVTIKVKSAGGS [r16_318_TrROS_Hall] | 4.33 ± 0.24 | 2.99 ± 0.11 | 4.07 ± 0.26
SAMEKGKALKYREVIPLPDGPVELEIIYFPETGEYVAIIRNPSTGEKVEIPFKFDSLEDAVKAAKDFVASAG [r14_65_TrMRF] | 2.06 ± 0.11 | 3.705 ± 0.029 | 3.29 ± 0.076
SAGGSAGGSAEKGIAFILLVTEEGDLEKALETAEELKKELEEKTGKPVEVVVNIFVVEPELFSAGGSAGGSA [r18_515_TrMRF] | 1.81 ± 0.048 | 2.38 ± 0.084 | 2.24 ± 0.14
SAGGSAGGSDVSEEELRAIAEEIAAELGLSDITVEVEKLPTAVVRITITNPATGETIEIEVPESAGGSAGGS [r12_1000_JUSTAS] | 1.75 ± 0.038 | 1.77 ± 0.061 | 1.79 ± 0.047
SVNPATQVVTVTREVTYPVPPSQGPISEEEAREAVEAELAARGWTLREVRVEYEGDTVTVTAVAERPAAASA [r9_1134_JUSTAS] | 1.04 ± 0.018 | 1.13 ± 0.053 | 1.11 ± 0.038
SAGGKSIHIADATLEDLVDLIANLPEPVVIHVERPVTFPVLLLENGVVAAVRTETAPATLTLTIPPELSAGG [r13_632_TrMRF] | 0.408 ± 0.021 | 0.258 ± 0.087 | 0.389 ± 0.05
SAGGSAGGSAGGSVTYEADEVEIKEFTDPSTGKKYVTVTFPGPGGPVTTTLPADLIEELSAGGSAGGSAGGS [r10_447_JUSTAS] | 0.96 ± 0.043 | 1.48 ± 0.03 | 1.33 ± 0.093
SAKRVNVEIWIPGDWDEIQEIAEDINFPVEIERNPDKPDMYRITFTFPTPEKAPKILDALNKHGMQIEISAG [r14_745_TrROS] | 1.33 ± 0.063 | 1.89 ± 0.081 | 1.64 ± 0.17
SSSTVTVTVTFPDGTVVTVDFTGSLAEVEAAVREWVRQYAAEQGLDPREVRVTITFADDGTTRERTLPLRSA [r9_1193_JUSTAS] | 0.921 ± 0.043 | 2.42 ± 0.035 | 2.04 ± 0.086
MPLGLESERYPNGAPTIESVEVPEDGSVKITLYFPETGEKVEYTLPPNIPPGTEYEIDLPGPTGTGRLRLGS [r1_43_TrMRF] | -0.204 ± 0.2 | 1.65 ± 0.15 | 1.27 ± 0.2
SAARVTVTYDPATNTVTVTVEVEVDGVTVTVTATVTFVDGRLVLTVTVEVRPPPPPPSAEQLAALRAAASAG [r14_930_TrROS_Hall] | 2.92 ± 0.19 | 2.69 ± 0.072 | 2.74 ± 0.33
SAGGSAGGSAGDGINFTLDIPIEGDFELRDVYLTPLEPENRRAFFLLRYKDGPVLLTLPLSAGGSAGGSAGG [r11_1013_TrMRF] | 1.21 ± 0.12 | 0.922 ± 0.18 | 1.09 ± 0.1
SAGGKKIKVEVKIEIKIEKNPDGSYTIRIKITVKVTNENGEKFEVKVELEITLSEEELEKLKKLLEELSAGG [r13_412_TrROS_Hall] | 3.07 ± 0.24 | 3.75 ± 0.46 | 3.5 ± 0.39
SAGGSAGGSAGGSIEIEITVELEDGYYLRISARFELNEDGSLKLEIKIELIKIEPGQELSAGGSAGGSAGGS [r10_241_TrROS_Hall] | 3.52 ± 0.48 | 2.27 ± 0.1 | 3.18 ± 0.32
SAGMAVVKITLEYEDGRKEEFILFVESENPEEVLEEAEEALAELIEELDVPLKSATIEIYDIPPDEELSAGG [r19_335_TrMRF] | 2.12 ± 0.11 | 3.39 ± 0.09 | 3 ± 0.1
SAGGSAGGSEKTLVTRTPDGYLLTLTEFTLPDGSKVTLATITFPNTGKTVTVPASLVPADATGSAGGSAGGS [r12_797_TrMRF] | 1.45 ± 0.028 | 3.061 ± 0.011 | 2.63 ± 0.041
SAGGSAGGSAGMTVTVPPDLDPESAIAALKAAAPASVKTVTLTIVDGEGPTTTVTVDITGSAGGSAGGSAGG [r17_215_JUSTAS] | -0.402 ± 0.18 | 0.209 ± 0.11 | 0.00145 ± 0.096

Sequence | folding stability dG unfold [1] [kcal/mol] | folding stability dG unfold [2] [kcal/mol] | folding stability dG unfold [3] [kcal/mol]
SAGGSAGGPVSVDPSTGTVTITVPPGTATPVVEAIAAALGLPVETATTPLPDGTTTVTVTIPAASAGGSAGG [r6_419_JUSTAS] | 0.733 ± 0.1 | 0.816 ± 0.1 | 0.844 ± 0.22
SAGGSAGGSAGGEKIVLKVKPGDTVEVNGKTIKVPPGALITFDKKTKKLTIEPLSPEDLSAGGSAGGSAGGS [r10_353_TrROS_Hall] | 0.954 ± 0.058 | 1.14 ± 0.26 | 1.11 ± 0.19
SEPVPVKIEISTSVDSNGNPSVTITVYNEEKVYTNPLNGATILSVDPNKQYIVIENPALGTKLTLSYTLISA [r9_1186_JUSTAS] | 2.07 ± 0.086 | 2.75 ± 0.048 | 2.49 ± 0.093
SAGGSAGGSAGLFIPETGLLVVYDPAPGTLHVFRITGGDGLEIEPVGEVEVDPDNPELGTAFSAGGSAGGSA [r18_448_TrMRF] | -0.284 ± 0.29 | 0.464 ± 0.16 | 0.327 ± 0.18
SAGGSAGGSAGGSNIPSDSTVTSKGSSDTTTSTYYNPETGTTLVTTTPPDGVPTTTTTASAGGSAGGSAGGS [r10_592_JUSTAS] | 0.621 ± 0.059 | -0.398 ± 0.36 | 0.159 ± 0.12
SAGSITLVFKTPEELEEALKKLAEELGLSEEEVEALKKELEEKFTITYDEETGYVTITLKPELSEEELKSAG [r5_717_TrROS_Hall] | 2 ± 0.13 | 3.71 ± 0.15 | 3.44 ± 0.24
SAMKIIIKLPKNVKPIKAEELEKIPGIKVVKIEIYKGEDGVYYLLIEIEESIPPEKLKELEEKIREIAGSAG [r14_421_TrMRF] | 4.44 ± 0.28 | 5.41 ± 0.15 | 5.81 ± 0.41
SAGGKTIWIFFPPDNPEEFLEELAQLPNVTDVEVWRHNDYYMIEIRLEGLPIEIHYNPEGYYMIEIELSAGG [r13_907_TrROS] | 2.39 ± 0.14 | 3.71 ± 0.074 | 3.48 ± 0.16
SAGGHTIMFPVKSPEQARDEIRDFARDQGLPIEPEDITIEQHEFKDPENGKKYRFFEITIDVTLKPPSAGGS [r16_587_TrROS] | 0.0514 ± 0.056 | 1.49 ± 0.11 | 1.02 ± 0.15
SAGGNIQIHYNPDWGVIRITYMFPSPTEAEDFIKKLLPPGYKIEPIEVERNPDGYYQVSIEIRLPKGASAGG [r13_338_TrROS] | 2.82 ± 0.12 | 3.924 ± 0.036 | 3.64 ± 0.063
SAGGSAGGSAGGKTITLPPGMSEEELLEALKKAKPGDTITIEVDGKTYTLKVENGKITLTSAGGSAGGSAGG [r7_560_TrROS_Hall] | 2.31 ± 0.14 | 3.92 ± 0.12 | 3.56 ± 0.12
TTVTTPKNGLININLTDKKGNKYTFTAPVKDPVETLEKLKKLIKDLFPEYKDVKVKVVSVDGINIKVVVDIS [r1_389_TrMRF] | 2.66 ± 0.11 | 3.57 ± 0.061 | 3.26 ± 0.1
SMKPGETVTLEVVIRVKKENMTLEEIAEEVANAIKALLPPGAKITIEVVDIEYDEETDEVYVKLKITIENSA [r9_706_TrROS_Hall] | 4.17 ± 0.28 | 2.64 ± 0.23 | 3.01 ± 0.32
SAMLKLEITLPDGTVVEVEIPLERPVPPAGEEEALAAAEAVREAVAAALGLEDAEVTMEVEEVSPEELLSAG [r14_378_JUSTAS] | 1.65 ± 0.12 | 1.03 ± 0.051 | 1.41 ± 0.2
SAGGSAMYEVTEEKDPNSDYTTVTITFPNGATVTITYNPKTNTITADVDPAVDPEVAAAAAKAVLSSAGGSA [r15_511_JUSTAS] | 1.92 ± 0.067 | 2.39 ± 0.028 | 2.23 ± 0.071
SAGGSAGGSAGGMNIKVLKEFEFETEDGVPVRYLLVDAGGEEGETVVIKETPTSIEIIPFSAGGSAGGSAGG [r7_960_TrMRF] | 0.856 ± 0.025 | 0.511 ± 0.17 | 0.694 ± 0.11
SAGGSAGGMTAVEVKEETVPITLTSSFFPGGVPVPGAAVSTITITTTTTIEPPTGKTVKVTVAGSAGGSAGG [r6_424_JUSTAS] | -0.318 ± 0.037 | -0.658 ± 0.12 | -0.423 ± 0.074
SAGGSAGGSALIIVAPDGFIISIEWPNGKPRTIMMPPDEIDEILEDDGIKDIEIQKLPPGASAGGSAGGSAG [r3_141_TrROS] | 0.388 ± 0.05 | 1.49 ± 0.036 | 1.14 ± 0.074
SAGGSAGGSAGKVIIIKVPKKDMTPEEVEKLAKELKEKFPDAKITVIEVKKDGYIIIKIDSAGGSAGGSAGG [r11_365_TrROS_Hall] | 1.91 ± 0.063 | 2.73 ± 0.079 | 2.47 ± 0.11
SAGMVKTVTLSREEVEKLVRELGRSPEEMTLEEFAERLEELFPGATVTVTVDTKTGTYTITITFPPSLASAG [r5_264_JUSTAS] | 3.61 ± 0.25 | 4.16 ± 0.085 | 3.93 ± 0.23
SAGGSAGGSAGGMKLVITLKDPNSDKTYTVTLPIEDKSPEEVIQEIEEKLGVEVVEVKPESAGGSAGGSAGG [r7_590_JUSTAS] | 2.06 ± 0.083 | 2.04 ± 0.021 | 2.02 ± 0.06
